The text below walks through data of paper PMC10127692, “SARS-CoV-2 SUD2 and Nsp5 Conspire to Boost Apoptosis of Respiratory Epithelial Cells via an Augmented Interaction with the G-Quadruplex of BclII”.

Data set [1] concerns the target T1, SUD2core (SUD2-N+M of Nsp3) (SARS-CoV-2, UniProt P0DTC1 1230-1493). Briefly: pull-down; 100 mM K+; positive control. The settings on record: protein: recombinant; tags: His; label: 5'-biotin; G4.
For data set [2], the target named is T1, SUD2core (SUD2-N+M of Nsp3). Description: BLI; 100 mM K+. The settings on record: protein: recombinant; tags: His; label: 5'-biotin (BLI, pulldown); Cy5 (EMSA); G4, folded in 100 mM K+.
For data set [3], the target named is SUD2core (SUD2-N+M of Nsp3);Nsp5 (SARS-CoV-2;SARS-CoV-2, UniProt P0DTC1;P0DTC1 1230-1493;3264-3569, |). Description: pull-down; 100 mM K+; Nsp5 added. The settings on record: protein: recombinant;recombinant; tags: His;GST; label: 5'-biotin (BLI, pulldown); Cy5 (EMSA); G4, folded in 100 mM K+.

B1: MYCG4 (structured_DNA)
DNA: TTGAGGGTGGGTAGGGTGGGTAA
For the molecule B1, the binding result in data set [1] was “binds”.

B2: Bcl2G4WT (G4 folded) (structured_DNA)
DNA: GGGCGCGGGAGGAATTGGGCGGG
As to B2, in data set [2], the Kd was 85 nM. Also, the binding signal in data set [3] is 6.3 fold SUD2core retained vs without Nsp5.

In general, Kd refers to the concentration at which binding is half-saturated.
